# Experimental data reported in PMC3217939.
# pKd: −log10 of the molar value.
# Target: Cotton leaf curl Kokhran virus-Dabawali V2, His-tagged (Cotton leaf curl Kokhran virus-Dabawali)
# Test: SPR; BIAcore 2000, 25 C; His-tagged V2 immobilised on Ni-NTA chip (about 340-350 RU); GST-CP 100-800 nM flowed at 20 ul/min, 90 s association; 10 mM HEPES pH 7.4, 150 mM NaCl, 50 uM EDTA, 0.005% surfactant P-20; global fit, 1:1 Langmuir model
substance,measurement,value
GST-CP fusion protein (coat protein of Cotton leaf curl Kokhran virus-Dabawali) (natural protein),pKd,5.59
same,koff,0.00267 s⁻¹
same,kon,1030 M⁻¹ s⁻¹
